The source of these data is patent US10077436B2, “Beta-glucosidase enzymes for increased biomass saccharification” (Edeniq, Inc., priority 2013, dated 2018).

What all share (assay type): biochemical, Aspergillus niger
Substrate in series [1]: O=[N+]([O-])c1ccc(O[C@@H]2O[C@H](CO)[C@@H](O)[C@H](O)[C@H]2O)cc1
As to the kind of experiment: BG kinetics, pNPG hydrolysis assay with glucose as competitive inhibitor, yEdQ885-BG. The following applies: other: pNPG substrate, pH 5.0, 50° C. From the text:
(§1) The beta-glucosidase (BG) gene from Aspergillus niger (Accession #CAB75696.1) was integrated into the TR3 yeast background at the T4U3 genomic site.
(§2) High resolution enzyme assays and kinetic testing comparing the beta-glucosidases described herein and commercial enzyme preparations were pursued to more clearly quantify differences in mutant BG enzymes compared to the wild type BG enzyme. Based on data presented herein, BG mutant YEdQ885 was selected for further analysis and compared to the BG activity present in commercial preparations of SP188 (Novozymes) and Accellerase® BG (DuPont) as well as wild type BG.
(§3) The kinetic properties of beta glucosidase are important for cellulosic hydrolysis, since in commercial situations a wide range of substrate concentrations and different product inhibition conditions will be encountered. In this example, a Michaelis-Menten kinetics model was used to describe BG kinetics. To determine these kinetic properties, BG activity assays using standard substrates pNPG and cellobiose were employed. yEdQ745-BG (wild type) and yEdQ885-BG (improved), were compared with two commercial BGs, A-BG (Accellerase®) BG from Dupont) and S-BG (Novozymes SP188 from Sigma).
BG activity assay using pNPG is one of the two commonly used standard assays to measure BG activity, which utilizes hydrolysis of p-nitrophenyl-β-D-glucopyranoside (pNPG) by BG into a yellow colored product, p-nitrophenol (pNP), that has a strong absorbance at 405 nm. One pNPG unit is defined as the amount of enzyme that produces 1 μmol of pNP per min. Briefly, to determine BG activity, 25 μL of diluted enzyme in 200 mM sodium acetate buffer (pH 5.0) was mixed with 25 μL of the same buffer and 25 μL of RO water (or glucose solution for the kinetic study) and the mixture was preincubated at 50° C. for 5 min. The reaction was initiated by adding 25 μL of 10 mM pNPG in 200 mM sodium acetate buffer (pH 5.0) and the mixture was incubated at 50° C. for 10 min. The reaction was then terminated by adding 100 μL of 0.25 M sodium carbonate, and the amount of pNP produced was determined by measuring absorbance at 405 nm using a predetermined calibration curve. […]
To determine the kinetic properties, a competitive inhibition mechanism was hypothesized as proposed in the literature (Chauve et al, 2010; Krogh et al, 2010). […] The turnover number, Kcat, can be calculated by Equation (2), where [Et] is the total amount of enzyme.
Conventionally, linearization methods can be used to determine the kinetic parameters based on Equation (1). […] Thus, Vmax, Km and Ki can be determined simultaneously from this fitting process, and Km/Ki can then be calculated. Kcat can be obtained by Equation (2) and Kcat/Km can be calculated accordingly. […]

Substrate in series [2]: OC[C@H]1O[C@@H](O[C@H]2[C@H](O)[C@@H](O)C(O)O[C@@H]2CO)[C@H](O)[C@@H](O)[C@@H]1O
Nature of the series: BG kinetics, cellobiose hydrolysis assay (HPLC) with glucose as competitive inhibitor, yEdQ885-BG. Particulars: other: cellobiose substrate, pH 4.8, 50° C.
Excerpt: as §1, §2, §3
(§4) BG activity assay using cellobiose is the other standard assay to measure BG or cellobiase activity, which utilizes hydrolysis of cellobiose by cellobiase into two molecules of glucose, the last step of enzymatic hydrolysis of cellulose. One cellobiase unit (commonly termed as CBU) is defined as the amount of enzyme that converts […] of cellobiose or produces 2 μmol of glucose per min. Briefly, to determine BG activity, 25 μL of diluted enzyme in 50 mM citrate buffer (pH 4.8) equilibrated to 50° C. was mixed with 25 μL cellobiose (or cellobiose/glucose mixture for the kinetic study) to start the reaction. The mixture was incubated at 50° C. for 10 min, and the reaction was terminated by incubating the mixture at 99° C. for 5 min. Different methods are available to measure the glucose produced in the assays. For the kinetic study, HPLC was used.
To determine kinetic properties using cellobiose substrate, duplicate assays with cellobiose concentrations ranging from 0.47 to 15 mM and glucose concentrations of 0, 0.9, 4.5, 6.75, and 8.1 (for A-BG) or 9 (for all the other three BGs) g/L were performed. As for pNPG substrate, the range of cellobiose substrate concentration was chosen to show detectable activity at the lowest substrate concentration and saturation stage at high substrate concentration. However, in contrast to the pNPG substrate, when there was still some activity left at glucose concentration up to 36 g/L, most of the BG activity was lost at an inhibitor level of 9 g/L when cellobiose substrate was used. […]

Substrate in series [3]: OC[C@H]1O[C@@H](O[C@H]2[C@H](O)[C@@H](O)C(O)O[C@@H]2CO)[C@H](O)[C@@H](O)[C@@H]1O
Nature of the series: BG kinetics, cellobiose hydrolysis assay (HPLC) with glucose as competitive inhibitor, yEdQ745-BG. The following applies: other: cellobiose substrate, pH 4.8, 50° C.
Excerpt: (§5) Accordingly, in some embodiments, the unmodified form of the beta-glucosidase is a wild-type or a naturally occurring beta-glucosidase, such as, for example, a fungal beta-glucosidase. The full nucleic acid and amino acid sequence for numerous fungal beta-glucosidases are available. The amino acid sequence of A. niger beta-glucosidase is provided as SEQ ID NO:2. Thus, in some embodiments, the unmodified beta-glucosidase is from an Aspergillus species. In some embodiments, the unmodified beta-glucosidase is from a Trichoderma species.
as §1
(§6) The BG-expressing strains were subsequently used in corn mash and corn stover simultaneous saccharification and fermentation (SSF) studies using flask scale and pilot plant fermentations. A 12-gallon corn stover fermentation was performed at 40° C. in which the beta-glucosidase secreting yeast strain was co-inoculated with three other engineered yeast strains individually expressing endoglucanase II, CBH1, and CBHII. Surviving TR3 Saccharomyces cerevisiae yeast strains individually expressing BG, EGII, CBH1 or CBH2 were recovered by plating onto solid medium. A clonal population of BG-secreting yeast was isolated and the BG gene integration confirmed. This strain is referred to herein as yEdQ745 and comprises the wild-type BG gene. The BG sequence in the Tau3 integration cassette was used for subsequent mutagenesis experiments.
as §3
as §4, with “The mixture was incubated at 50° C. for 10 min, and the reaction was terminated by incubating the mixture at 99° C. for 5 min. Different methods are available to measure the glucose produced in the assays. For the kinetic study, HPLC was used.” left out

Substrate in series [4]: O=[N+]([O-])c1ccc(O[C@@H]2O[C@H](CO)[C@@H](O)[C@H](O)[C@H]2O)cc1
Nature of the series: BG kinetics, pNPG hydrolysis assay with glucose as competitive inhibitor, yEdQ745-BG. The following applies: other: pNPG substrate, pH 5.0, 50° C.
Excerpt: as §5, §1, §6, §3
BG activity assay using pNPG is one of the two commonly used standard assays to measure BG activity, which utilizes hydrolysis of p-nitrophenyl-β-D-glucopyranoside (pNPG) by BG into a yellow colored product, p-nitrophenol (pNP), that has a strong absorbance at 405 nm. One pNPG unit is defined as the amount of enzyme that produces 1 μmol of pNP per min. […] The reaction was then terminated by adding 100 μL of 0.25 M sodium carbonate, and the amount of pNP produced was determined by measuring absorbance at 405 nm using a predetermined calibration curve. […]

B1: Aspergillus niger beta-glucosidase (CAB75696.1, SEQ ID NO:2) improved variant yEdQ885-BG (Aspergillus niger; Y363C/Y375F/Y610F) (protein)
chain: DELAYSPPYYPSPWANGQGDWAQAYQRAVDIVSQMTLDEKVNLTTGTGWELELCVGQTGGVPRLGVPGMCLQDSPLGVRDSDYNSAFPAGMNVAATWDKNLAYLRGKAMGQEFSDKGADIQLGPAAGPLGRSPDGGRNWEGFSPDPALSGVLFAETIKGIQDAGVVATAKHYIAYEQEHFRQAPEAQGFGFNISESGSANLDDKTMHELYLWPFADAIRAGAGAVMCSYNQINNSYGCQNSYTLNKLLKAELGFQGFVMSDWAAHHAGVSGALAGLDMSMPGDVDYDSGTSYWGTNLTISVLNGTVPQWRVDDMAVRIMAAYYKVGRDRLWTPPNFSSWTRDECGYKYYYVSEGPFEKVNQYVNVQRNHSELIRRIGADSTVLLKNDGALPLTGKERLVALIGEDAGSNPYGANGCSDRGCDNGTLAMGWGSGTANFPYLVTPEQAISNEVLKHKNGVFTATDNWAIDQIEALAKTASVSLVFVNADSGEGYINVDGNLGDRRNLTLWRNGDNVIKAAASNCNNTIVVIHSVGPVLVNEWYDNPNVTAILWGGLPGQESGNSLADVLYGRVNPGAKSPFTWGKTREAYQDFLVTEPNNGNGAPQEDFVEGVFIDYRGFDKRNETPIYEFGYGLSYTTFNYSNLEVQVLSAPAYEPASGETEAAPTFGEVGNASDYLYPSGLQRITKFIYPWLNGTDLEASSGDASYGQDSSDYLPEGATDGSAQPILPAGGGPGGNPRLYDELIRVSVTIKNTGKVAGDEVPQLYVSLGGPNEPKIVLRQFERITLQPSEETKWSTTLTRRDLANWNVEKQDWEITSYPKMVFVGSSSRKLPLRASLPTVH
notes: strain yEdQ885, BG acid/base mutant #8
In the case of B1, in series [1], the Michaelis-Menten constant (Km) amounted to 640 ± 30 µM, the Vmax was 6.33 µmol/min/mg, the kcat was determined as 12.7 s⁻¹ and the kcat/Km amounted to 19800 M⁻¹ s⁻¹. In series [2], the Km was 1450 ± 260 µM, the Vmax stood at 11.6 µmol/min/mg, the catalytic constant (kcat) came out at 23.1 s⁻¹ and the kcat/Km worked out at 16000 M⁻¹ s⁻¹.

B2: Aspergillus niger beta-glucosidase, wild type, yEdQ745-BG (CAB75696.1, SEQ ID NO:2) (Aspergillus niger) (protein)
chain: DELAYSPPYYPSPWANGQGDWAQAYQRAVDIVSQMTLDEKVNLTTGTGWELELCVGQTGGVPRLGVPGMCLQDSPLGVRDSDYNSAFPAGMNVAATWDKNLAYLRGKAMGQEFSDKGADIQLGPAAGPLGRSPDGGRNWEGFSPDPALSGVLFAETIKGIQDAGVVATAKHYIAYEQEHFRQAPEAQGFGFNISESGSANLDDKTMHELYLWPFADAIRAGAGAVMCSYNQINNSYGCQNSYTLNKLLKAELGFQGFVMSDWAAHHAGVSGALAGLDMSMPGDVDYDSGTSYWGTNLTISVLNGTVPQWRVDDMAVRIMAAYYKVGRDRLWTPPNFSSWTRDEYGYKYYYVSEGPYEKVNQYVNVQRNHSELIRRIGADSTVLLKNDGALPLTGKERLVALIGEDAGSNPYGANGCSDRGCDNGTLAMGWGSGTANFPYLVTPEQAISNEVLKHKNGVFTATDNWAIDQIEALAKTASVSLVFVNADSGEGYINVDGNLGDRRNLTLWRNGDNVIKAAASNCNNTIVVIHSVGPVLVNEWYDNPNVTAILWGGLPGQESGNSLADVLYGRVNPGAKSPFTWGKTREAYQDYLVTEPNNGNGAPQEDFVEGVFIDYRGFDKRNETPIYEFGYGLSYTTFNYSNLEVQVLSAPAYEPASGETEAAPTFGEVGNASDYLYPSGLQRITKFIYPWLNGTDLEASSGDASYGQDSSDYLPEGATDGSAQPILPAGGGPGGNPRLYDELIRVSVTIKNTGKVAGDEVPQLYVSLGGPNEPKIVLRQFERITLQPSEETKWSTTLTRRDLANWNVEKQDWEITSYPKMVFVGSSSRKLPLRASLPTVH
notes: strain yEdQ745
Consider B2, for which, in series [3], the Km came to 1450 ± 290 µM, the Vmax came to 4.36 µmol/min/mg, the kcat turned out to be 8.72 s⁻¹ and the kcat/Km was 6010 M⁻¹ s⁻¹. In addition, in series [4], the Km turned out to be 640 ± 60 µM, the Vmax was 4.17 µmol/min/mg, the kcat turned out to be 8.34 s⁻¹ and the kcat/Km turned out to be 13000 M⁻¹ s⁻¹.

By Km is commonly meant the substrate concentration at which the rate is half of its maximum. A word on the Vmax: it is the rate approached at saturating substrate. As a reminder, the kcat is the number of substrate molecules converted per active site and unit of time at saturation. A word on the kcat/Km: it is the second-order rate constant that governs catalysis at low substrate concentration.
